The source of these data is patent US20090221027A1 (BASF AG, priority 2005, published 2009).

For data set [1], the target named is C. glutamicum MetY enzyme (Corynebacterium glutamicum, UniProt Q79VI4). The data set can be described thus: biochemical.
Experimental: Cells were harvested and cell lysates from pellets were obtained using the Ribolyzer protocol and machine (Hybaid, UK). Cell extracts were centrifuged to obtain a soluble supernatant fraction of cytosolic protein. The method to determine the O-acetyl-homoserine sulfhydrylase activity in cell extracts was performed essentially as described in Yamagata, Methods in Enzymology, 1987, Vol. 143 pp 479-480. Cell extracts were added to a buffer of 100 mM KH2PO4 (pH 7.2) containing 5 mM O-acetyl-homoserine and 200 μM pyridoxal phosphate. […] The reaction was initiated by addition of Na-sulphide solution to a final concentration of 4 mM. After a 15 minute incubation at 30° C., the reaction was terminated and acidified by addition of 1/10 volume of 30% trichloroacetic acid. After centrifugation (5 minutes at 13,000 rpm) to remove precipitated protein, incubation at reduced atmospheric pressure in a Speed-Vac evaporator was performed to deplete residual H2S. The sulphide depleted solution was reacted with cyanide and nitroprusside as described in Yamagata supra. Absorption at 520 nm was determined and background corrected.
Data set [2] can be described thus: Cystathionine γ-synthase activity in crude cell extracts. In kind it is biochemical.
The conditions of data set [3]: reported specific activity; Bsu MetI from T7 promoter in E. coli; cited from earlier work.
Data set [4] can be described thus: Inhibition of the enzyme by methionine (Table 1). In kind it is biochemical.
The conditions of data set [5]: reported specific activity; Bsu MetI from T7 promoter in E. coli; cited from earlier work. The source holds these as a separate data set.
Data set [6] in a line: O-acetyl-homoserine sulfhydrylase activity in crude cell extracts. In kind it is biochemical.
The conditions of data set [7]: H.-S. Lee, personal communication; cited from earlier work.
Setting [8] is: in C. glutamicum from P15, crude extracts.
The mark [9] stands for this setting: in E. coli from P15, crude extracts.

Where two headings read alike, the source gives them in different places.

One may read the IC50 as the midpoint of a concentration-inhibition curve. The low end stands for higher potency, the high end for lower potency. `CSCC[C@H](N)C(=O)O` [methionine, L-methionine] had a half-inhibitory concentration (IC50) in data set [1] of around 5 mM.

B1: Bsu MetI: Bacillus subtilis O-acetyl-homoserine sulfhydrylase with cystathionine-gamma-synthase activity, SEQ ID NO:2 (protein)
chain: MSQHVETKLAQIGNRSDEVTGTVSAPIYLSTAYRHRGIGESTGFDYVRTKNPTRQLVEDAIANLENGARGLAFSSGMAAIQTIMALFKSGDELIVSSDLYGGTYRLFENEWKKYGLTFHYDDFSDEDCLRSKITPNTKAVFVETPTNPLMQEADIEHIARITKEHGLLLIVDNTFYTPVLQRPLELGADIVIHSATKYLGGHNDLLAGLVVVKDERLGEEMFQHQNAIGAVLPPFDSWLLMRGMKTLSLRMRQHQANAQELAAFLEEQEEISDVLYPGKGGMLSFRLQKEEWVNPFLKALKTICFAESLGGVESFITYPATQTHMDIPEEIRIANGVCNRLLRFSVGIEHAEDLKEDLKQALCQVKEGAVSFE
B1: the “Cystathionine γ-synthase activity” value in data set [2] (setting [8]) is 30.2 nmol/min; in data set [2] (setting [9]) it was 1900 nmol/min; in data set [5], 1.5 µmol/min/mg. Moreover, the values for the O-Ac-Hse sulfhydrylase activity in data set [3], in data set [6] (setting [8]) and in data set [6] (setting [9]) were 7.0 µmol/min/mg, 6.3 nmol/min and 199 nmol/min, respectively. Also, the Inhibition by methionine entry in data set [4] (setting [8]) and in data set [4] (setting [9]) was “No” in each case.

B2: Cg1 MetY: C. glutamicum O-acetylhomoserine sulfhydrylase (protein, UniProt Q79VI4 1-437, looked up)
O-acetyl-L-homoserine …: MPKYDNSNADQWGFETRSIHAGQSVDAQTSARNLPIYQSTAFVFDSAEHAKQRFALEDLGPVYSRLTNPTVEALENRIASLEGGVHAVAFSSGQAATTNAILNLAGAGDHIVTSPRLYGGTETLFLITLNRLGIDVSFVENPDDPESWQAAVQPNTKAFFGETFANPQADVLDIPAVAEVAHRNSVPLIIDNTIATAALVRPLELGADVVVASLTKFYTGNGSGLGGVLIDGGKFDWTVEKDGKPVFPYFVTPDAAYHGLKYADLGAPAFGLKVRVGLLRDTGSTLSAFNAWAAVQGIDTLSLRLERHNENAIKVAEFLNNHEKVEKVNFAGLKDSPWYATKEKLGLKYTGSVLTFEIKGGKDEAWAFIDALKLHSNLANIGDVRSLVVHPATTTHSQSDEAGLARAGVTQSTVRLSVGIETIDDIIADLEGGFAAI
Regarding B2, the Inhibition by methionine entry in data set [7] is reported as “Yes”. Also, the O-Ac-Hse sulfhydrylase activity in data set [3] is 6.0 µmol/min/mg.
